Data published in US20220288169A1, “COMPOSITIONS AND METHODS FOR THE TREATMENT AND PREVENTION OF HYPOGLYCEMIC COMPLICATIONS” (The Board of Supervisors of Louisiana State University and …, priority 2019, published 2022).
“And” between values parts separate entries of the source, which are not always exact repeats. Equal entries are not always repeated. “Also recorded” adds a separate entry of the source. Where two headings read alike, the source gives them in different places.

Columns and labels:
[1] = tested on: male Sprague Dawley rats exposed to 3dRH (rat model of HAAF); type: in vivo
Method: For Experiment 5, a total of 21 rats were subjected to a three day recurrent hypoglycemia (3dRH) paradigm adapted from previous studies (44). […] On each of the three days of the paradigm, all rats received an IP injection of either PBS or leptin at ≈1.5 h prior to lights off. […] On the fourth day, all three cohorts of rats were then subjected to a hypoglycemic ITT for determination of hypoglycemia-induced epinephrine, glucagon, and corticosterone secretion. Leptin levels were also assayed in each group at the conclusion of the ITT. […] For mice, trunk blood was collected following CO2 euthanasia. […] Louis, Mo.). […] Rat leptin levels were determined by […], MilliporeSigma, St. Louis, Mo.). […] Methods: In experiment one, 3 groups of mice (two CR groups and one ad-lib fed control group) received either twice daily leptin (0.5-1 μg/g, IP) or PBS. In experiment two, 3 groups of rats (two 3dRH and one control) received daily leptin or PBS injections (0.3-0.7 mg/kg, IP).

[2] = tested on: rats exposed to a single bout of hypoglycemia or 3dRH; details: cited from earlier work
[3] = tested on: male C57BL/6J mice exposed to 60% caloric restriction (CR mice); type: in vivo, mouse
Method: In order to overcome differences in baseline blood glucose levels between groups, a variable dose of insulin (IP) was used to produce equivalent exposure to hypoglycemia (A). […] Data were analyzed via one or two way ANOVA. Group differences were determined via Bonferroni's multiple comparison test with significance levels as follows: *- p<0.05; n=7-8/group. A total of 149 mice were subjected to the severe caloric restriction and refeeding paradigm across four separate experiments. The following procedures were identical across all four experiments. Animals were randomly assigned to one of two groups: Mice exposed to severe caloric restriction for six days (CR mice) or ad libitum fed mice (Ad-lib mice). […] Following a five-day acclimation period to wire-bottomed cages (Days 0-4), food intake was monitored daily in each mouse for six days prior to initiation of caloric restriction, and each mouse's average daily food intake was determined (Days 5-10). […] Body weight and free-living blood glucose were measured daily immediately prior to feeding. […] During the refeeding period, food intake, free-living blood glucose, and body weight continued to be measured daily at 1.5 h before lights off in both CR and Ad-lib mice up to the terminal day of the experiments. […] Rat leptin levels were determined by […], MilliporeSigma, St. Louis, Mo.). […]

starved rats = details: acute leptin infusion during starvation, cited from earlier work
[4] = acute ICV leptin in 3dRH rats, first 40 min of 90 min hypoglycemic challenge, relative to 3dRH rats not treated with leptin
[5] = acute ICV leptin infusion, rats exposed to a single bout of hypoglycemia

B1: leptin (protein, UniProt P50596 22-167, looked up)
Leptin: VPIHKVQDDTKTLIKTIVTRINDISHTQSVSARQRVTGLDFIPGLHPILSLSKMDQTLAVYQQILTSLPSQNVLQIAHDLENLRDLLHLLAFSKSCSLPQTRGLQKPESLDGVLEASLYSTEVVALSRLQGSLQDILQQLDLSPEC
notes: hormone secreted by adipocytes
**Q.** What does the source list for B1?
**A.** hypoglycemia-induced glucagon levels ([1]; 3dRH paradigm with leptin): not affected; hypoglycemia-induced glucagon levels ([1]; 3dRH+Leptin rats, 60 min of ITT, mean (SD)): 34 pmol/L; increase of epinephrine levels relative to untreated 3dRH rats ([1]; leptin concurrent with antecedent hypoglycemia): 50%; leptin levels at the 60-minute time point relative to controls ([1]; rat, in vivo): significantly increased; serum leptin levels at the conclusion of the ITT ([1]; rat, in vivo): 5.1 ng/mL; epinephrine levels increased by [2, 4]: 25%; glucagon levels increased by [2, 4]: 45%; epinephrine levels increased by [2, 5]: 19%; glucagon levels decreased by [2, 5]: 50%; rescue of counter-regulation by acute leptin ([2]; acute leptin administration, 3dRH rats): did not restore counter-regulation; also recorded: does not reverse the effects of 3dRH; also recorded: did not correct the deficit in epinephrine release; also recorded: does not rescue the effect; epinephrine levels lower than untreated rats exposed to a single bout of hypoglycemia ([2]; leptin treated 3dRH rats): 60%; hypoglycemia-induced glucagon levels ([3]; CR+Leptin mice, twice daily IP leptin 0.5-1 μg/g during CR, 60 min of ITT, Day 1 of refeeding, mean (SD)): 91.7 pmol/L and 78.1 pmol/L; serum glucagon levels in response to the ITT ([3]; Example 7, leptin-treated CR mice, 0.5-1 μg/g IP twice daily, after 16 h refeeding and 6 h fast): 78.0 ± 16.8 pg/mL; effect on blood glucose (starved rats; physiological doses): reducing blood glucose; effect on blood glucose (starved rats; supraphysiological doses): increasing blood glucose
